Test results reported in patent publication US20200264182A1, “METHOD FOR DETECTING PROSTATE CANCER” (J-OIL MILLS, INC., priority 2017, published 2020).

Columns and labels:
[1] = Binding to sugar chains, summary of Tables 2 to 5; settings: sugar chains No. 718, 722, 723, 727, 909, 910 and 933
Procedure: (§1) Details of the FAC method are described in Patent Document 2 filed by some of the present applicants, for example.
(§2) Binding constants (at 25° C.) of PhoSL, SRL, NSL and LSL belonging to the fucose α1→6 specific lectin for various sugar chains are shown in Tables 2 to 5.
(§3) The AAL and AOL bind to the fucose α1→6 sugar chains (sugar chains No. 015, 201 to 203, and 401 to 418), as well as to the glycolipid-type sugar chain excluding the fucose α1→6 (sugar chains No. 718, 722, 723, 727, 909, 910 and 933). The LCL and PSL bind to the fucose α1→6 sugar chain, as well as to sugar chain excluding the α1→6 fucose (sugar chains No. 003, and 005 to 014).

[2] = Binding to sugar chains, summary of Tables 2 to 5; settings: sugar chains No. 015, 201 to 203, and 401 to 418
Procedure: as §1, §2, §3
Furthermore, the binding constant of the fucose α1→6 specific lectin is not decreased even if a sialic acid is added to the fucose α1→6 sugar chain (sugar chains No. 601 and 602). In addition, the fucose α1→6 specific lectin also strongly binds to the triple-strand (sugar chains No. 407 to 413) and the four-strand (sugar chains No. 418) of the fucose uα1→6 sugar chain.

[3] = FAC binding constant (Table 5 entry); settings: Table 5: sugar chain having no fucose; at 25° C.
Procedure: as §1, §2

FAC binding constant = settings: at 25° C.
Procedure: as §1, §2

[4] = sugar chain having fucose other than α1→6 fucose

B1: AAL: Aleuria aurantia lectin, has affinity for fucose α1→6 but is not specific; from J-OIL MILLS, Inc. (protein)
chain: PTEFLYTSKIAAISWAATGGRQQRVYFQDLNGKIREAQRGGDNPWTGGSSQNVIGEAKLFSPLAAVTWKSAQGIQIRVYCVNKDNILSEFVYDGSKWITGQLGSVGVKVGSNSKLAALQWGGSESAPPNIRVYYQKSNGSGSSIHEYVWSGKWTAGASFGSTVPGTGIGATAIGPGRLRIYYQATDNKIREHCWDSNSWYVGGFSASASAGVSIAAISWGSTPNIRVYWQKGREELYEAAYGGSWNTPGQIKDASRPTPSLPDTFIAANSSGNIDISVFFQASGVSLQQWQWISGKGWSIGAVVPTGTPAGW
90000 M⁻¹: Binding constant for sugar chain No. 910 (FAC binding constant; [4])
<1000 M⁻¹: Binding constant for sugar chain No. 728 [3] | Binding constant for sugar chain No. 728 (FAC binding constant; Table 3: sugar chain having fucose other than α1→6 fucose) | Binding constant for sugar chain No. 419 (FAC binding constant; [4]) | Binding constant for sugar chain No. 420 (FAC binding constant; [4]) | Binding constant for sugar chain No. 719 (FAC binding constant; [4]) | Binding constant for sugar chain No. 720 (FAC binding constant; [4]) | Binding constant for sugar chain No. 721 (FAC binding constant; [4]) | Binding constant for sugar chain No. 722 (FAC binding constant; [4]) | Binding constant for sugar chain No. 726 (FAC binding constant; [4]) | Binding constant for sugar chain No. 729 (FAC binding constant; [4]) | Binding constant for sugar chain No. 730 (FAC binding constant; [4]) | Binding constant for sugar chain No. 731 (FAC binding constant; [4]) | Binding constant for sugar chain No. 739 (FAC binding constant; [4]) | Binding constant for sugar chain No. 931 (FAC binding constant; [4]) | Binding constant for sugar chain No. 932 (FAC binding constant; [4]) | Binding constant for sugar chain No. 001 (FAC binding constant; sugar chain having no fucose) | Binding constant for sugar chain No. 002 (FAC binding constant; sugar chain having no fucose) | Binding constant for sugar chain No. 003 (FAC binding constant; sugar chain having no fucose) | Binding constant for sugar chain No. 004 (FAC binding constant; sugar chain having no fucose) | Binding constant for sugar chain No. 005 (FAC binding constant; sugar chain having no fucose) | Binding constant for sugar chain No. 006 (FAC binding constant; sugar chain having no fucose) | Binding constant for sugar chain No. 007 (FAC binding constant; sugar chain having no fucose) | Binding constant for sugar chain No. 008 (FAC binding constant; sugar chain having no fucose) | Binding constant for sugar chain No. 009 (FAC binding constant; sugar chain having no fucose) | Binding constant for sugar chain No. 010 (FAC binding constant; sugar chain having no fucose) | Binding constant for sugar chain No. 011 (FAC binding constant; sugar chain having no fucose) | Binding constant for sugar chain No. 012 (FAC binding constant; sugar chain having no fucose) | Binding constant for sugar chain No. 013 (FAC binding constant; sugar chain having no fucose) | Binding constant for sugar chain No. 014 (FAC binding constant; sugar chain having no fucose) | Binding constant for sugar chain No. 101 (FAC binding constant; sugar chain having no fucose) | Binding constant for sugar chain No. 103 (FAC binding constant; sugar chain having no fucose) | Binding constant for sugar chain No. 104 (FAC binding constant; sugar chain having no fucose) | Binding constant for sugar chain No. 105 (FAC binding constant; sugar chain having no fucose) | Binding constant for sugar chain No. 107 (FAC binding constant; sugar chain having no fucose) | Binding constant for sugar chain No. 108 (FAC binding constant; sugar chain having no fucose) | Binding constant for sugar chain No. 301 (FAC binding constant; sugar chain having no fucose) | Binding constant for sugar chain No. 304 (FAC binding constant; sugar chain having no fucose) | Binding constant for sugar chain No. 305 (FAC binding constant; sugar chain having no fucose) | Binding constant for sugar chain No. 307 (FAC binding constant; sugar chain having no fucose) | Binding constant for sugar chain No. 308 (FAC binding constant; sugar chain having no fucose) | Binding constant for sugar chain No. 313 (FAC binding constant; sugar chain having no fucose) | Binding constant for sugar chain No. 314 (FAC binding constant; sugar chain having no fucose) | Binding constant for sugar chain No. 323 (FAC binding constant; sugar chain having no fucose) | Binding constant for sugar chain No. 501 (FAC binding constant; sugar chain having no fucose) | Binding constant for sugar chain No. 502 (FAC binding constant; sugar chain having no fucose) | Binding constant for sugar chain No. 503 (FAC binding constant; sugar chain having no fucose) | Binding constant for sugar chain No. 504 (FAC binding constant; sugar chain having no fucose) | Binding constant for sugar chain No. 701 (FAC binding constant; sugar chain having no fucose) | Binding constant for sugar chain No. 702 (FAC binding constant; sugar chain having no fucose) | Binding constant for sugar chain No. 703 (FAC binding constant; sugar chain having no fucose) | Binding constant for sugar chain No. 704 (FAC binding constant; sugar chain having no fucose) | Binding constant for sugar chain No. 705 (FAC binding constant; sugar chain having no fucose) | Binding constant for sugar chain No. 706 (FAC binding constant; sugar chain having no fucose) | Binding constant for sugar chain No. 707 (FAC binding constant; sugar chain having no fucose) | Binding constant for sugar chain No. 708 (FAC binding constant; sugar chain having no fucose) | Binding constant for sugar chain No. 709 (FAC binding constant; sugar chain having no fucose) | Binding constant for sugar chain No. 710 (FAC binding constant; sugar chain having no fucose) | Binding constant for sugar chain No. 711 (FAC binding constant; sugar chain having no fucose) | Binding constant for sugar chain No. 712 (FAC binding constant; sugar chain having no fucose) | Binding constant for sugar chain No. 713 (FAC binding constant; sugar chain having no fucose) | Binding constant for sugar chain No. 715 (FAC binding constant; sugar chain having no fucose) | Binding constant for sugar chain No. 716 (FAC binding constant; sugar chain having no fucose) | Binding constant for sugar chain No. 717 (FAC binding constant; sugar chain having no fucose) | Binding constant for sugar chain No. 724 (FAC binding constant; sugar chain having no fucose) | Binding constant for sugar chain No. 725 (FAC binding constant; sugar chain having no fucose) | Binding constant for sugar chain No. 732 (FAC binding constant; sugar chain having no fucose) | Binding constant for sugar chain No. 733 (FAC binding constant; sugar chain having no fucose) | Binding constant for sugar chain No. 734 (FAC binding constant; sugar chain having no fucose) | Binding constant for sugar chain No. 735 (FAC binding constant; sugar chain having no fucose) | Binding constant for sugar chain No. 736 (FAC binding constant; sugar chain having no fucose) | Binding constant for sugar chain No. 737 (FAC binding constant; sugar chain having no fucose) | Binding constant for sugar chain No. 738 (FAC binding constant; sugar chain having no fucose) | Binding constant for sugar chain No. 901 (FAC binding constant; sugar chain having no fucose) | Binding constant for sugar chain No. 902 (FAC binding constant; sugar chain having no fucose) | Binding constant for sugar chain No. 903 (FAC binding constant; sugar chain having no fucose) | Binding constant for sugar chain No. 905 (FAC binding constant; sugar chain having no fucose) | Binding constant for sugar chain No. 906 (FAC binding constant; sugar chain having no fucose) | Binding constant for sugar chain No. 907 (FAC binding constant; sugar chain having no fucose) | Binding constant for sugar chain No. 418 (FAC binding constant; sugar chain having α1→6 fucose)
52000 M⁻¹: Binding constant for sugar chain No. 403 (FAC binding constant; sugar chain having α1→6 fucose) | Binding constant for sugar chain No. 602 (FAC binding constant; sugar chain having α1→6 fucose)
45000 M⁻¹: Binding constant for sugar chain No. 407 (FAC binding constant; sugar chain having α1→6 fucose)
47000 M⁻¹: Binding constant for sugar chain No. 406 (FAC binding constant; sugar chain having α1→6 fucose)
65000 M⁻¹: Binding constant for sugar chain No. 718 (FAC binding constant; [4]) | Binding constant for sugar chain No. 404 (FAC binding constant; sugar chain having α1→6 fucose)
54000 M⁻¹: Binding constant for sugar chain No. 202 (FAC binding constant; sugar chain having α1→6 fucose)
bind: binding to the glycolipid-type sugar chain excluding the fucose α1→6 (in words) [1] | binding to the fucose α1→6 sugar chains (in words) [2]
310000 M⁻¹: Binding constant for sugar chain No. 909 (FAC binding constant; [4])
130000 M⁻¹: Binding constant for sugar chain No. 727 (FAC binding constant; [4])
61000 M⁻¹: Binding constant for sugar chain No. 601 (FAC binding constant; sugar chain having α1→6 fucose)
56000 M⁻¹: Binding constant for sugar chain No. 405 (FAC binding constant; sugar chain having α1→6 fucose)
210000 M⁻¹: Binding constant for sugar chain No. 933 (FAC binding constant; [4])
55000 M⁻¹: Binding constant for sugar chain No. 401 (FAC binding constant; sugar chain having α1→6 fucose)
91000 M⁻¹: Binding constant for sugar chain No. 015 (FAC binding constant; sugar chain having α1→6 fucose)
38000 M⁻¹: Binding constant for sugar chain No. 410 (FAC binding constant; sugar chain having α1→6 fucose)
66000 M⁻¹: Binding constant for sugar chain No. 203 (FAC binding constant; sugar chain having α1→6 fucose)
51000 M⁻¹: Binding constant for sugar chain No. 201 (FAC binding constant; sugar chain having α1→6 fucose)
11000 M⁻¹: Binding constant for sugar chain No. 402 (FAC binding constant; sugar chain having α1→6 fucose)
32000 M⁻¹: Binding constant for sugar chain No. 413 (FAC binding constant; sugar chain having α1→6 fucose)
35000 M⁻¹: Binding constant for sugar chain No. 723 (FAC binding constant; [4])
